As a reminder, the Km is the substrate concentration at which the rate is half of its maximum.

Substrate in this data set: N[C@H]1CCSC1=O
The data set is described as follows: purified protein. It is filed as biochemical, Homo sapiens. As to conditions: Dulbecco's PBS with 0.32 mM DTNB, 37 °C, partially purified native enzyme.

B1: human liver BPHL (purified human liver HCTLase) (Homo sapiens) (protein)
chain: SVTSAKVAVNGVQLHYQQTGEGDHAVLLLPGMLGSGETDFGPQLKNLNKKLFTVVAWDPRGYGHSRPPDRDFPADFFERDAKDAVDLMKALKFKKVSLLGWSDGGITALIAAAKYPSYIHKMVIWGANAYVTDEDSMIYEGIRDVSKWSERTRKPLEALYGYDYFARTCEKWVDGIRQFKHLPDGNICRHLLPRVQCPALIVHGEKDPLVPRFHADFIHKHVKGSRLHLMPEGKHNLHLRFADEFNKLAEDFLQ
notes: native, partially purified from pooled human liver (five donors); about 30 kDa by gel filtration; identified by MS, with ACAA1 and hydroxyacyl-CoA dehydrogenase bands co-purifying
On to B1, for which the Km is reported as 3.92 mM.

The values above are taken from PMC4198189, “Human Valacyclovir Hydrolase/Biphenyl Hydrolase-Like Protein Is a Highly Efficient Homocysteine Thiolactonase” (PLoS ONE, 2014).
